For one experiment, the target named is 生物素标记的抗原多肽 (human) (UniProt P29400). Nature of the experiment: BLI (Fortebio Octet), biotinylated peptide on SA biosensor, antibody at 100 to 1.56 nM. On the technique in general: BLI is a label-free optical method that tracks binding on a fibre tip over time.
The next experiment concerns the target 人IV型胶原蛋白α5链多肽 (human) (UniProt P29400). The experiment can be described thus: indirect ELISA, plate coated with 0.5 μg/ml peptide, purified antibody in 3-fold dilutions from 1 μg/ml. On the technique in general: ELISA stands for enzyme-linked immunosorbent assay.

This is an account of results in patent CN116355088A.

B1: 18G6-2 (antibody, V domains shown)
VH: QVQLQQPGAELVKPGASVKVSCKASGYTFTNYWMHWVKQRPGQGLEWIGRIHPSDSAINYSPKFTGKATLTVDKSSSTAYMQLTSLTSEDSAVYYCAIGGYDSYWGQGTLVTVSA
VL: DIQMTQTTSSLSASLGDRVTISCRASQDISNYLNWYQQKPDGTVKLLIYYTSTLHSGVPSRFSGSGSGTDYSLTINSLAQEDIATYFCQQVNTLPWTFGGGTKLAIK
In the experiment with 生物素标记的抗原多肽 (human), B1 gave a Kd of 3.18 nM. Also, in the experiment with 人IV型胶原蛋白α5链多肽 (human), the EC50 was determined as 0.0221 µg/mL.

As usually defined, the Kd is the free concentration of one partner at which half of the binding sites on the other are occupied at equilibrium, for simple one-to-one binding. The EC50 is the concentration giving half of the maximal effect.
